Reference: the Human Domainome abundance scans (Beltran et al. 2025)
± gives the uncertainty stated by the source.

B1: Histone-lysine N-methyltransferase 2A, residues 1148 to 1194; numbered along this chain, Q03164 (parent)
chain: KGRRSRRCGQCPGCQVPEDCGVCTNCLDKPKFGGRNIKKQCCKMRKC

Variants of: B1
Test: abundance fitness (aPCA) (normalised: wild type 0, dead -1); higher = more abundant; growth selection in yeast, the domain comes from the species named
Conditions: Homo sapiens

Variant	abundance fitness
KGRRSRRCGQCPGCQVPEDCGVCTNCLDKPKFGGRNLKKQCCKMRKC	-0.159 ± 0.086
KGRRSRRCGQCPGCQVPEDCGVCTNCLDKPKFGGRNNKKQCCKMRKC	0.093 ± 0.17
KGRRSRRCGQCPGCQVPEDCGVCTNCLDKPKFGGRNDKKQCCKMRKC	0.265 ± 0.11
KGRRSRRCGQCPGCQVPEDCGVCTNCLDKPKFGGRNEKKQCCKMRKC	0.274 ± 0.12
KGRRSRRCGQCPGCQVPEDCGVCTNCLDKPKFGGRNKKKQCCKMRKC	-0.166 ± 0.16
KGRRSRRCGQCPGCQVPEDCGVCTNCLDKPKFGGRNCKKQCCKMRKC	0.095 ± 0.097
KGRRSRRCGQCPGCQVPEDCGVCTNCLDKPKFGGRNMKKQCCKMRKC	0.002 ± 0.13
KGRRSRRCGQCPGCQVPEDCGVCTNCLDKPKFGGRNPKKQCCKMRKC	-0.554 ± 0.14
KGRRSRRCGQCPGCQVPEDCGVCTNCLDKPKFGGRNHKKQCCKMRKC	-0.258 ± 0.17
KGRRSRRCGQCPGCQVPEDCGVCTNCLDKPKFGGRNGKKQCCKMRKC	-0.056 ± 0.072
KGRRSRRCGQCPGCQVPEDCGVCTNCLDKPKFGGRNAKKQCCKMRKC	-0.025 ± 0.09
KGRRSRRCGQCPGCQVPEDCGVCTNCLDKPKFGGRIIKKQCCKMRKC	-0.952 ± 0.33
KGRRSRRCGQCPGCQVPEDCGVCTNCLDKPKFGGREIKKQCCKMRKC	0.003 ± 0.091
KGRRSRRCGQCPGCQVPEDCGVCTNCLDKPKFGGRFIKKQCCKMRKC	-0.694 ± 0.18
KGRRSRRCGQCPGCQVPEDCGVCTNCLDKPKFGGRVIKKQCCKMRKC	-0.814 ± 0.12
KGRRSRRCGQCPGCQVPEDCGVCTNCLDKPKFGGRYIKKQCCKMRKC	-0.569 ± 0.17
KGRRSRRCGQCPGCQVPEDCGVCTNCLDKPKFGGRKIKKQCCKMRKC	-0.63 ± 0.15
KGRRSRRCGQCPGCQVPEDCGVCTNCLDKPKFGGRDIKKQCCKMRKC	0.134 ± 0.11
KGRRSRRCGQCPGCQVPEDCGVCTNCLDKPKFGGRSIKKQCCKMRKC	-0.523 ± 0.092
KGRRSRRCGQCPGCQVPEDCGVCTNCLDKPKFGGRTIKKQCCKMRKC	-0.731 ± 0.15
KGRRSRRCGQCPGCQVPEDCGVCTNCLDKPKFGGRPIKKQCCKMRKC	-0.62 ± 0.14
KGRRSRRCGQCPGCQVPEDCGVCTNCLDKPKFGGRLIKKQCCKMRKC	-0.651 ± 0.11
KGRRSRRCGQCPGCQVPEDCGVCTNCLDKPKFGGRGIKKQCCKMRKC	-0.091 ± 0.075
KGRRSRRCGQCPGCQVPEDCGVCTNCLDKPKFGGRRIKKQCCKMRKC	-0.672 ± 0.1
KGRRSRRCGQCPGCQVPEDCGVCTNCLDKPKFGGRHIKKQCCKMRKC	-0.076 ± 0.18
KGRRSRRCGQCPGCQVPEDCGVCTNCLDKPKFGGRMIKKQCCKMRKC	-0.274 ± 0.2
KGRRSRRCGQCPGCQVPEDCGVCTNCLDKPKFGGRCIKKQCCKMRKC	-0.344 ± 0.11
KGRRSRRCGQCPGCQVPEDCGVCTNCLDKPKFGGRAIKKQCCKMRKC	-0.339 ± 0.09

Variant	abundance fitness
KGRRSRRCGQCPGCQVPEDCGVCTNCLDKPKFGGRQIKKQCCKMRKC	0.151 ± 0.18
KGRRSRRCGQCPGCQVPEDCGVCTNCLDKPKFGGRWIKKQCCKMRKC	-0.595 ± 0.11
KGRRSRRCGQCPGCQVPEDCGVCTNCLDKYKFGGRNIKKQCCKMRKC	-0.712 ± 0.21
KGRRSRRCGQCPGCQVPEDCGVCTNCLDKWKFGGRNIKKQCCKMRKC	-0.711 ± 0.14
KGRRSRRCGQCPGCQVPEDCGVCTNCLDKPKFGSRNIKKQCCKMRKC	-0.288 ± 0.088
KGRRSRRCGQCPGCQVPEDCGVCTNCLDKPKFGDRNIKKQCCKMRKC	-0.236 ± 0.1
KGRRSRRCGQCPGCQVPEDCGVCTNCLDKPKFGRRNIKKQCCKMRKC	-0.52 ± 0.082
KGRRSRRCGQCPGCQVPEDCGVCTNCLDKPKFGKRNIKKQCCKMRKC	-0.478 ± 0.15
KGRRSRRCGQCPGCQVPEDCGVCTNCLDKPKFGARNIKKQCCKMRKC	-0.463 ± 0.089
KGRRSRRCGQCPGCQVPEDCGVCTNCLDKPKFGCRNIKKQCCKMRKC	-0.32 ± 0.11
KGRRSRRCGQCPGCQVPEDCGVCTNCLDKPKFGVRNIKKQCCKMRKC	-0.453 ± 0.084
KGRRSRRCGQCPGCQVPEDCGVCTNCLDKPKFGWRNIKKQCCKMRKC	-0.906 ± 0.11
KGRRSRRCGQCPGCQVPEDCGVCTNCLDKPKFGIRNIKKQCCKMRKC	-0.787 ± 0.2
KGRRSRRCGQCPGCQVPEDCGVCTNCLDKPKFGTRNIKKQCCKMRKC	-0.316 ± 0.1
KGRRSRRCGQCPGCQVPEDCGVCTNCLDKPKFGHRNIKKQCCKMRKC	-1.07 ± 0.25
KGRRSRRCGQCPGCQVPEDCGVCTNCLDKPKFGERNIKKQCCKMRKC	-0.133 ± 0.098
KGRRSRRCGQCPGCQVPEDCGVCTNCLDKPKFGFRNIKKQCCKMRKC	-0.409 ± 0.13
KGRRSRRCGQCPGCQVPEDCGVCTNCLDKPKFGPRNIKKQCCKMRKC	-0.448 ± 0.11
KGRRSRRCGQCPGCQVPEDCGVCTNCLDKPKFGYRNIKKQCCKMRKC	-0.774 ± 0.19
KGRRSRRCGQCPGCQVPEDCGVCTNCLDKPKQGGRNIKKQCCKMRKC	-0.09 ± 0.13
KGRRSRRCGQCPGCQVPEDCGVCTNCLDKPKIGGRNIKKQCCKMRKC	-0.641 ± 0.099
KGRRSRRCGQCPGCQVPEDCGVCTNCLDKPKCGGRNIKKQCCKMRKC	-0.286 ± 0.093
KGRRSRRCGQCPGCQVPEDCGVCTNCLDKPKWGGRNIKKQCCKMRKC	-0.337 ± 0.14
KGRRSRRCGQCPGCQVPEDCGVCTNCLDKPKDGGRNIKKQCCKMRKC	0.01 ± 0.098
KGRRSRRCGQCPGCQVPEDCGVCTNCLDKPKSGGRNIKKQCCKMRKC	-0.185 ± 0.077
KGRRSRRCGQCPGCQVPEDCGVCTNCLDKPKPGGRNIKKQCCKMRKC	-0.257 ± 0.087
KGRRSRRCGQCPGCQVPEDCGVCTNCLDKPKNGGRNIKKQCCKMRKC	-0.228 ± 0.09
